Measured values: a protein production outcome set (Wang et al. 2014)

Experiment: label from the status in PepcDB records
For “MQQINFYRQRVAINVLAKDIANAKAIYEAAEGHAVIGVLSAQFATVEEGVPEVKRWMAEVPSISVGLGAGDPAQYYKAAMIAAHTHPAHVNQTFTGSGFAAGALAATGGEQTHINALVSPTGTPGEVVISTGVSSSQGTPARVSCEAAVRMMQDMGAHAAKFFPMGGEKSLPELYALATTAARHGMTLIEPTGGISLDNFGIILQTCLEAGVPRVMPHVYSSIIDPQTGNTRPEDIIQLMEIVKALV”, the protein production was “failed”.
In the case of “MQQIWGSERRRTAIGRMALSVPARQALADRQLVAERTILDYGCGRGDDVRALQQLDCQVVGWDPYYRTDTQLVATDVVLLTYVLNVIEDPAERRQTLKQAWELTSTLLVVSARLTWEKSKVHGEGFGDGLLTSRQTFQHLYATSELREYVEQVTGAR”, the protein production is reported as “failed”.
For “MQQKLENIKFVITDVDGVLTDGQLHYDANGEAIKSFHVRDGLGIKMLMDADIQVAVLSGRDSPILRRRIADLGIKLFFLGKLEKETACFDLMKQAGVTAEQTAYIGDDSVDLPAFAACGTSFAVADAPIYVKNAVDHVLSTHGGKGAFREMSDMILQAQGKSSVFDTAQGFLKSVKSMGQ”, the protein production was “not failed”.
In the case of “MQQMNSRLKLTMAVALTAIVLLAGCASTPDWPVSARDNTKPVYSEKLLEQVPFYPQEKYQCGPASLAMMLNAQGLATNPDILKELVYLPGKEGSLQVEMVAGARAHDMLVYRLEPEPEAILAEVEAGNPVLVMQNLRLSWWPQWHFAVVVGYDSTEQVFILNTDTRRHYEMPYKVFYNTWSKAERWAAVILPPDQTPASAEMLPYLQAAHDLETTGHTLAAQRAYQTAITRWPEQPTPLMANANLQYQLGHFQNAVGSFLRVVEKFPGFSEGWNNLAIALNDAGCPARARQASECAAGLAPKRFKPLQDEARSHAADAAACPQIPACPSNAH”, the protein production is reported as “failed”.
With “MQQPTASVVSYVAEYHKATETTMGRYKKVIEITGHDEVAAKLLEGLIDAGTRYFSKVVEMEHRMASARFRLDGEELRELTETLDRSRRLAHESLISSLHVFNRYIVKEYGEELKEAGIEGGIFPKPEANRDRIAIADWAGELLTGIYENRHR” the protein production was “not failed”.
For “MQRFIDNSLESNWLWLTARICLALMFVASGLAKLFDYQASLEEMRAAGLEPAWLFNIATAVTLLAGSALVLLDRKLWLGAGALAVFLLLTILIVHTFWSKTGVEAKLAMFFALEHIAVIGGLIATAIASAQRQRLRQDVSVAATYQKA”, the protein production was “failed”.
For “MQRIRIIDSHTGGEPTRLVIGGFPDLGQGDMAERRRLLGERHDAWRAACILEPRGSDVLVGALLCAPVDPEACAGVIFFNNSGYLGMCGHGTIGLVASLAHLGRIGPGVHRIETPVGEVEATLHEDGSVSVRNVPAYRYRRQVSVEVPGIGRVSGDIAWGGNWFFLVAGHGQRLAGDNLDALTAYTVAVQQALDDQDIRGEDGGAIDHIELFADDPHADSRNFVLCPGKAYDRSPCGTGTSAKLACLAADGKLLPGQPWRQASVIGSQFEGRYEWLDGQPGGPIVPTIRGRAHVSAEATLLLADDDPFAWGIRR”, the protein production was “not failed”.
For “MQRPHVQEAEATAAPQQRTGASATFAELLKRVKAEGLLDLDPRYYIGRLALNTTLLLVGFAAFFALGDSWWQLVVALWMGLCGGQSAFMWHDAGHKAMFRSKKAASAVGYFHANLVNGVSFGWWVNHHNRHHSNPNHLDMDPDIGRRTAIFDIKQYPTRRGTQKFIVRYQSVLFFALLVTESFKMLKTAVLSIAQGKTKRPVLESFLLLARAAVYLTLVFTVLSPVLAVAFVLVQQAALGVYFGMIFAPNHKGMEVRDGDEETLDWLERQVLTSRNIRPSLFIDFLYGGLNYQVEHHLFPAMPQKNLARARELTRAYCAERGVPYHEVGFWASYREVASFLHEVSAPVRRGDVEEQIRRQAGQAA”, the protein production was “failed”.
In the case of “MQSATDVAEYCKYDGFDGLKRAISLSDEEILNELDIAHLRGRGGAAYPLGKKWRHLYHAKGTTKYIVCNADEGEPGTFKDKVLLSEDPLSVIEGMIIAGYLFSAKAGYIYMRGEYRRIQKTFQEALDNARQAGFLGENILGIEGFNYDITIISGAGAYICGENSALLNSIEGKTGRPRVKPPHLADVGLYLQPTLVNNVESFASVPVILREGGQAFLEMGTADGGGTKLICLSGHIKNRGLYEVNLGTPLEEIIYGEQYGGGSATGRALKFIHFGGQSGPIGAVATLRDCLYSYEDLWAHDLSVGSGAIVVMDDSVNVVDYLVHVAAFFAHESCGKCTPCRLGTTRILELLSKFNRNEATASDLPRLEKMLTHVTRLSACGLGQSVANPMKSALALFPEEFETTAETEIYATSKGGWLEHHHHHH”, the protein production is reported as “not failed”.
For “MQSDHKEKIAILVDVQNVYYTCREAYRSNFDYNQFWYVATQEKEVVSAKAYAIASNDPKQRQFHHILRGVGFEVMLKPYIQRRDGSAKGDWDVGITLDAIEIAPDVDRVILVSGDGDFSLLVERIQQRYNKKVTVYGVPRLTSQTLIDCADNFVAIDDDFLL”, the protein production was “not failed”.
With “MQSDVVLGAAHWVYLLSVVAIILTMVLRANAVVPSVLGTFLVVLAFTGSPIQALVGIFTASFVAAKELFNIFLVITFMTALLNALKVLQADVRMVQPLRRVMTNGHASFLILAGCTYGLSLFFWPTPAVPLVCAILLPAAVAAGLPPLAGAMAIAIAGQGMALSSEYVIGVAPGISAKAAGAAVSAAVVADRALVLSVITGAIALVMTYLFMRKHIVPGDTALLAAWQARAQDGELERIEGSGSFDKAELARGASQPVKGGAEARLAGWSRAFALITPIAFLGVIALMALPRLVPGLPALRGGDAAALVGGVAFMLMMLATLAAEGPRRMLDVCPEHVTDGFVFAFRAMGSVLPIAGFFFIGAAETAAPILGLESGHAPGLLFDLISAAQHLIPENHYLVAFGVLLVGMVTGIDGSGFAGLPLTGTLSGALGPVVGIDPATLAAVGQMGAVWTGGGTLIAWSSLIAVAGFARVHVLDMVRALMLPVLLALSVSTIAAILIWS” the protein production was “failed”.
With “MQSLHGNCLIAYARHKYILTMVNGEYRYFNGGDLVFADASQIRVDKCVENFVFVSRDTLSLFLPMLKEEALNLHAHKKVSSLLVHHCSRDIPVFQEVAQLSQNKNLRYAEMLRKRALIFALLSVFLEDEHFIPLLLNVLQPNMRTRVCTVINNNIAHEWTLARIASELLMSPSLLKKKLREEETSYSQLLTECRMQRALQLIVIHGFSIKRVAVSCGYHSVSYFIYVFRNYYGMTPTEYQERSAQRLSNRDSAASIVAQGNFYGTDRSAEGIRL” the protein production was “failed”.
With “MQSPPHDPASALAIRNHYRQSQSRAARLRLLVDTGQELIQLPPEAMRKCVLQRACAFVAMDHGLLLEWGADNGVQTTARHGSKERLSTLETTADPLAIGPQWLERPGTHLPCVLLLPLRGADEGSFGTLVLANSVAISAPDGEDIESLQLLATLLAAHLENNRLLEALVARDRTMSQLVRQLFTAQEDERKRVAYDLHDGLAQTLAGLHQRLQGFAGRCPELPAQLDADLQAILKLAQHCVGEGRQLISGLRPAVLDDFGLWQAVDKEADRLREAGIIVQWTSQSLERLPSHLEIALFRIAQEGINNVLKHANASCVELALELSDGNVSLRLQDNGRGFITEKPINGTGVQKLGLVAMQERASLLGGRLTCVSRPGRGTRLRTIVPFTADKAIT” the protein production was “failed”.
In the case of “MQSRSDGSWVLTLSRRLDAPSGEFAGVVLVTLQLKYFQNYYSTFEVGPHGTIGMTNDDGIVMVRRPDKQGVIGTSIAGTSIYVTMRARKHGTATYRSPIDRVERISSFAPARPYPLTVLTGFSVDDALANWRETARQRIVVAALGCTLLLGVGIWLDLQLRRMHRNEAKLSTEAWVDALTGIANRRAFDHRLSRALQDAVRLEAPLSVLMIDVDHFKLYNDTYGHVNGDACLRLIAGAIAGCSRRSEDLAARYGGEEFGMILPHTDAAGALRLADAVRNAVAELGLMHLSSPTSAHVTVSIGAATFEPGEAPLSPNAIVHDADSALYRAKQKGRNRTSA”, the protein production is reported as “failed”.
For “MQSYAADLIALGLLFLTGLAADQLGARSRLPRVTLLLICGLLAGSAGFDLIPESLAALYPIISVIALSMVAFLLGGELSLRTLSGHGRAIVVISVMVVLVTQLTVSAGLAMIGMPLAAALMVGALATATDPAATLDVIRQGRASGDFPRRLKGIVAIDDAWGVLLFGLVAVLAGAVEGNGSAHGLLGGALVEIAGSVALGLAVGLPGASLTGRLSGGEPLRIEALGLVFLTAGLSLWLDLSYLIAGMTAGAVIVNLAHHHKRAFREIEHIEWPFMIVFFILAGASLDLSALWAVGPLLMGYVALRVLGRVLGGWAGAALAATARGERPWYGPALLPQAGVAIGMALIAGDLFPQYADMITALAIGATVVFELAGPLAAAYALRRVRDSRDQSAA”, the protein production was “failed”.
With “MQSYFSPLLDAMHAWLMLQLPGPVAGALLGGLHALVFIPLAALAWRVLSNESRRAQWVPLFALAGMCSAVFLSELGNTMGDTASAIPVLAALAVVLLAQFRARNGLHVVHLWAVAGALIGLAVALKLTNALYALALVPAVLCDGGRLRSRVLALSVLAGVALLVLLLVAGPWYWQVWQHLGNPLFPQFNGVFKSPLAQPVSIADVRWLPRTIGEQLIWPLLFTLKPQRIGDLGLVQAGWAVLYGVVAIAAGRALVRRPVRAAAVDRAAIVLLVFFGVAYALWQAIFSIHRYLVVLELLAPLVLWIVCRHAFAARANRKAAWLIGACALVAVVGWKDWGHESWARESFQVEQPVLGNPAASSVLLVGDEPQSWRVPLLPSQARYIGVATNISETDHYRQRVRALIAERPQLYAMLGAARDKQQVRIDRMNRLAQQFGWERQPGCSRLRWLVARGLRAELDTSQPDRCVLAIPKGKALDIAAADQAVREAAQQRLAAYGLTLDPARCRTLSSQVGQAVYPYQFCQLALPN” the protein production was “failed”.
In the case of “MQTIYRLKEPQIDREEDVRTIIQTFLFQFSEKAYGGPSFNRPACCFAPHIYGAGKTFVGQNFSAYLNIFAERECSNAQTFQQLHSSNDNPQPSELKVPWKHFAEKTLSVCFKLEESFSDAPFPSFRKALMYNIILNS”, the protein production is reported as “not failed”.
With “MQTKEKLASLSYLAVKSLLYELNLTPKPGLVDCHNNGAHNDMDFYTFLDSILSLSPFFKKYIEVGWLYHNESPQYLFNQLRKLGIEAEAAMFSATERVNTHKGINFSFALLLGATGSYLAKHIELIQEKRRFMPQDSLTICHLAGEMSMHLIQNDLSHVETKRNLTYGEKLFLQYGLKGLRGEASQGYPSLTQKALPFFRNELLKKQDIQISQLKLLLYLMTFIEDSNIIHRGGIKSWKKVQQEAQTLLEKDLPPYQLKEQLNSYNQILTDRHLSPGGAADLLSLTLYFSFLEQLI” the protein production was “failed”.
With “MQTKKNEIWVGIFLLAALLAALFVCLKAANVTSIRTEPTYTLYATFDNIGGLKARSPVSIGGVVVGRVADITLDPKTYLPRVTLEIEQRYNHIPDTSSLSIRTSGLLGEQYLALNVGFEDPELGTAILKDGDTIQDTKSAMVLEDLIGQFLYGSKGDDNKNSGDAPAAAPGNNETTEPVGTTK” the protein production was “failed”.
